Bridges are numbered along the chain shown (N, C = ends). Where no end group is shown, it is not given here.

Some targets named below: TRPA1; Nav1.5; Nav1.7; TRPV1; TRPV3; TRPM2; TRPM4-K1045A.
What all share (assay): cell-based or functional assay
In test [1] the target is T1, mouse TRPM8 channel (mouse, UniProt Q8R4D5 1-1104).
The target in test [2] is T2, TRPV2.
T2 sequence (Q9Y5S1 whole entry, species assumed, looked up): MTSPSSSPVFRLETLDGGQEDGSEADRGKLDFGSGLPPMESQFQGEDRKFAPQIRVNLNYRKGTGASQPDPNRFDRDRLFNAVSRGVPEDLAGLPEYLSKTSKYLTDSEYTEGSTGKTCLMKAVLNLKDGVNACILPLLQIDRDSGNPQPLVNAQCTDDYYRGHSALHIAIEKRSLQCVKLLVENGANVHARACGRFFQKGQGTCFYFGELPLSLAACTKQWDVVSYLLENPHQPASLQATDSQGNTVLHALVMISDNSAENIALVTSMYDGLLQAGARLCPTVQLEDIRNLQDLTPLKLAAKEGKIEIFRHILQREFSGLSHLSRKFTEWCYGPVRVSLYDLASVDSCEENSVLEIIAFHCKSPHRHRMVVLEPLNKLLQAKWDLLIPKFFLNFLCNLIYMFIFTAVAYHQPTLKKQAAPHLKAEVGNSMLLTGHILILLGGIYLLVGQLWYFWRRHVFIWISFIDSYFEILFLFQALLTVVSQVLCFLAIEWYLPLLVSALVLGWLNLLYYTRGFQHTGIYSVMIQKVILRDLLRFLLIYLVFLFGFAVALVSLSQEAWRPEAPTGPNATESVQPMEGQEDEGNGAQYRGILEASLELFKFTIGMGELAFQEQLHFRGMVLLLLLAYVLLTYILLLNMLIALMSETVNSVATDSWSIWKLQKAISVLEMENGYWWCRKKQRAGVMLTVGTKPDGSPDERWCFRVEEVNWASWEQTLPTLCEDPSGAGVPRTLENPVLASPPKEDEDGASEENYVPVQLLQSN

The target in test [3] is T1, mouse TRPM8 channel. The source holds these as a separate data set.
The target in test [4] is T2, TRPV2. This is another data set of the same source.

T1 sequence (Q8R4D5 whole entry): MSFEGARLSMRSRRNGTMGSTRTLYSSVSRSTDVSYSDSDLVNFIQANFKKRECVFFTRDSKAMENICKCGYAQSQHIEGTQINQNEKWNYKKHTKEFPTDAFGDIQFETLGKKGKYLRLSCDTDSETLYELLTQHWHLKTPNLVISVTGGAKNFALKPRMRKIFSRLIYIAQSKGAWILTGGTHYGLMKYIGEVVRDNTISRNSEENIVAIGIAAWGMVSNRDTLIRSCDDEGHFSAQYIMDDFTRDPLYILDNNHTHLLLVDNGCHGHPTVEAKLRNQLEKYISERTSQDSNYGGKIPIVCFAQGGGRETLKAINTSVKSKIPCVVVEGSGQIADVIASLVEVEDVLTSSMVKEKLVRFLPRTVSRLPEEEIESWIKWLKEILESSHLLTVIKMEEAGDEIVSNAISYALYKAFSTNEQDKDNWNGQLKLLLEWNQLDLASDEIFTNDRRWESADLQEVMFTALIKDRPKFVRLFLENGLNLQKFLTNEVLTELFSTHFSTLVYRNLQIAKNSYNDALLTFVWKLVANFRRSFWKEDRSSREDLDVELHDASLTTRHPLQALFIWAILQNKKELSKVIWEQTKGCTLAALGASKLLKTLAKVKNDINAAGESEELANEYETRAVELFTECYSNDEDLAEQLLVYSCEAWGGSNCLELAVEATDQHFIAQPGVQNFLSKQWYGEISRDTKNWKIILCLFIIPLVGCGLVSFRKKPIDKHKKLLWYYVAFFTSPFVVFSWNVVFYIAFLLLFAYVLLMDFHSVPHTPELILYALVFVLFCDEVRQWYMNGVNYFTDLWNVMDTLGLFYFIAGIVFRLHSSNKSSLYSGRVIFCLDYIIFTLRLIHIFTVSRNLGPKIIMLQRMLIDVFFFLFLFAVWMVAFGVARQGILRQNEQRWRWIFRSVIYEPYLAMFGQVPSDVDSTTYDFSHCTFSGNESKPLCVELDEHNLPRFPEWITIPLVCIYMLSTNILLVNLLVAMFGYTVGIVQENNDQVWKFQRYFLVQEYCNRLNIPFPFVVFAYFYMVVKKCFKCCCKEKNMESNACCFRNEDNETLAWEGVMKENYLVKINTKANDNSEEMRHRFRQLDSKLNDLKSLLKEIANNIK
Sequence of TRPA1 (O75762 whole entry): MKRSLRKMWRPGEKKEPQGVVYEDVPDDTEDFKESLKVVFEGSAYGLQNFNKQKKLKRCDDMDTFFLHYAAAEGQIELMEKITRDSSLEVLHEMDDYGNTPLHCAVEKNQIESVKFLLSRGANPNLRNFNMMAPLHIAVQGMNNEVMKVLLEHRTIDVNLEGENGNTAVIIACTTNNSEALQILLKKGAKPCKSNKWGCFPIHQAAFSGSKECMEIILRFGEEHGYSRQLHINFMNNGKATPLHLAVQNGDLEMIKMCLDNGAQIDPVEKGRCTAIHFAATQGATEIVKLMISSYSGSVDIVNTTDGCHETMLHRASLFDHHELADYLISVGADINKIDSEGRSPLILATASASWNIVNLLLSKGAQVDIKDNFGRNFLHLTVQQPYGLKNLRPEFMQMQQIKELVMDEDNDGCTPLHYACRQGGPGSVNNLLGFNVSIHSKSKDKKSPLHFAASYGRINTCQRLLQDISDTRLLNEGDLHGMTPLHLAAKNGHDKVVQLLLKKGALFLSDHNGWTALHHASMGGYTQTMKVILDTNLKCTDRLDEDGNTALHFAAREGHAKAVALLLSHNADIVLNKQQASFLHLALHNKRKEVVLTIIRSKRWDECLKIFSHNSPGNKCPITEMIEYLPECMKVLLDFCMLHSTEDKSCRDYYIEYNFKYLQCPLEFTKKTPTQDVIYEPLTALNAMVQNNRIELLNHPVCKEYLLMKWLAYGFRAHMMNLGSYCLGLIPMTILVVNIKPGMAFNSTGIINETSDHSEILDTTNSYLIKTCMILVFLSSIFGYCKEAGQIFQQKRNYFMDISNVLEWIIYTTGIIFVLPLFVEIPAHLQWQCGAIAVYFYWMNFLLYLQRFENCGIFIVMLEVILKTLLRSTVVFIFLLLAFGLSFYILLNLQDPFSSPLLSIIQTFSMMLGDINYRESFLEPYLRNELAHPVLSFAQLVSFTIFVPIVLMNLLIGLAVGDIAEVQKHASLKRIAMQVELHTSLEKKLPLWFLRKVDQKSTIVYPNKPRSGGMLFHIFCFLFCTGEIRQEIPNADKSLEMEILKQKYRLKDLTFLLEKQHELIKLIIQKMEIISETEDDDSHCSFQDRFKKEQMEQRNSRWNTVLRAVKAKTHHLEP
Sequence of TRPV3 (Q8NET8 whole entry): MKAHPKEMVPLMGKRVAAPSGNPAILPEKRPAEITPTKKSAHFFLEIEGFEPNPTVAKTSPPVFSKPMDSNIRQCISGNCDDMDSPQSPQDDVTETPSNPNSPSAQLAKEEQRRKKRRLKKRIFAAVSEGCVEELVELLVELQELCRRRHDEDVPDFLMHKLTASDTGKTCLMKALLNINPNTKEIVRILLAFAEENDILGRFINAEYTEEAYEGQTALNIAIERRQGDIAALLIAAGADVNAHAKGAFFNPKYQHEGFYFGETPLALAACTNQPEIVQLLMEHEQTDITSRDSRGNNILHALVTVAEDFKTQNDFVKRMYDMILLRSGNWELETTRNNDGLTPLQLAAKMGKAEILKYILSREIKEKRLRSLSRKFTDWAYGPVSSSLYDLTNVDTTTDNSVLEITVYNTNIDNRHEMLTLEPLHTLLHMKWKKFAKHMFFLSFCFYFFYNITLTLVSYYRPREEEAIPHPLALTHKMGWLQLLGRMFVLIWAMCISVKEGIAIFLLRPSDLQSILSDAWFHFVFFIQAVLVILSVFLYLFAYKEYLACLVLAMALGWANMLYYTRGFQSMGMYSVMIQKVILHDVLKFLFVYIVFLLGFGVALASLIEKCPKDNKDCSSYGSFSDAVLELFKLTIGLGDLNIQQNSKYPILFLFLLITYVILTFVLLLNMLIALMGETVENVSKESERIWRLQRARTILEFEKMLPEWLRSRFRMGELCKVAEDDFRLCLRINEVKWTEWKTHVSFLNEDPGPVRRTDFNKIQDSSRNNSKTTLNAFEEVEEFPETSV

B1: polypeptide DeC-1.1 (peptide)
peptide: CRNSRAAHDSQKC
modifications: disulfide 1-13
Take B1: the “half-inhibitory concentration (IC50), electrophysiology” value with mouse TRPM8 channel [1] is 133 µM.

B2: polypeptide DeC-1.2 (peptide)
peptide: CRRDRARHYRQRC
modifications: disulfide 1-13
With B2, the “half-inhibitory concentration (IC50), electrophysiology” value in the test with TRPV2 [2] is ~10 µM. In addition, the “IC50, inhibition of channel current, electrophysiology” value with TRPA1 is > 100 µM. Besides, the “IC50, inhibition of sodium channel current, electrophysiology” value with Nav1.5 and in the test with Nav1.7 was > 100 µM throughout. Besides, the “IC50, inhibition of menthol-activated TRPM8 current, whole-cell electrophysiology” value with mouse TRPM8 channel [3] amounted to 4.5 nM. Also, the “IC50, inhibition of ligand-activated channel current, electrophysiology” value was > 100 µM with TRPV1; > 5 µM in the test with TRPV2 [4]; > 100 µM with TRPV3; > 100 µM with TRPM2; > 10 µM in the test with TRPM4-K1045A.

The values above are taken from patent US20240417428A1 (ZHEJIANG UNIVERSITY, published 2024).
